# Experimental data: patent publication US20170088605A1 (Novartis, published 2017)
# Substitutions are numbered along the chain they refer to.
# B1: NEG447 (antibody, human IgG1, lambda, V domains shown)
# VH: QVQLQESGPGLVKPSETLSLTCTVSGGSISRDYWSWVRQPPGAGLEWIGNIYYSGSTNYNPSLKSRVTISVATNKKQFSLKLTSVTAADTAVYYCARVPGCSSTSCIDGWFDPWGQGILVTVSS
# VL: QSVLTQPPSLSAAPGQKVTISCSGSSSNIGNTYVSWYQQLPGTAPKLLIYDNNKRPSGIPDRFSGSKSGTSATLGITGLQTGDEAVYYCGTWDSSLSAWVFGGGTRLTVLG
# B2: P165E2 (antibody, human IgG1, lambda, V domains shown)
# VH: B1 VH with S35T, A43E, T73A, N74S
# VL: B1 VL with K17R, D61G, V86A
# B3: P7G11A (antibody, human IgG1, lambda, V domains shown)
# VH: QVQLQESGPGLVKPSQTLSLTCTVSGGSISSGGYSWSWIRQPPGKGLEYIGYIYYRGTTYYNPSLKSRVTISVDTSNNQISLKLSSVTAADTAVYYCARALTHLVGVGWFDPWGQGTMVTVSS
# VL: B1 VL with L10V, S25G, I29L, N31S, T32N, V86D, S94G, R106K, L107V
# B4: P7G11 (antibody, human IgG1, lambda, V domains shown)
# VH: B3 VH with V12A, T23S, V69I, I71M, S85T
# VL: B1 VL with L10V, S25G, I29L, N31S, T32N, V86D, S94G, R106K, L107V
# B5: EBB-C1975-B5 (antibody, human IgG1, kappa, V domains shown)
# VH: QVQLVQSGPGLVKPSETLSLTCTVSGGSTSAYYWTWIRQPPGKGLEWIGYISHSGSTNYNPSLKSRVTISADTSKNQLSLKVNSVTAADTAVYYCARLGDTASLSRFYYYIDVWGKGTTVTVSS
# VL: EIVMTQSPDTLSLSPGERATLSCRASQSVSSNYLAWYQQKPGEAPRLLIYGASSRATGIPDRFSGSGSGTDFTLTISRLEPEDFAVYYCQQYGSSPPYTFGQGTRLEIKR
# B6: EBB-C1975-A3 (antibody, V domains shown)
# VH: EVQLVETGGGLVQPGGSLRLSCAASGFTVRRNYMSWVRQAPGKGLEWVSGIYSGGSTYYADSVKGRFTISRDYSKNTLSLQMNTLRVEDTAVYFCAREDEFWSGYSAGVDWGQGTLVTVSS
# VL: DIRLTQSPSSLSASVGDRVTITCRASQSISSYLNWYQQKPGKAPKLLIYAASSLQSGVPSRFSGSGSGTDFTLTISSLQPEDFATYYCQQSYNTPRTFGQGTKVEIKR
# B7: EBB-C1975-E7 (antibody, human IgG1, kappa, V domains shown)
# VH: B6 VH with V5L, T7S, Q13R, L20V, R30S, S53G, S56R, D61E, S79F, V92L
# VL: DIQVTQSPSSLSASVGDRVTITCRASQSISSYLNWYQQEPGKAPKLLIYAASTLQTGVPSRFSGSGSGTDFTLTISSLQPEDFATYYCQQSYNTPRTFGQGTKVEIKR
# B8: 2075-16-1 (antibody, V domains shown)
# VH: QVQLQQPGSELVRPGASVKLSCKASGYTFTNYWMHWVKQGHGQGLEWIGNIYPGSGNTNYGENFKSKGTLTVDTSSSTAYMHLSRLTSEDSAVYYCSRSAIYYGYDGHYFAMDYWGQGTSVTVSS
# VL: DIQMTQSPSSLSASLGGKVTITCKASQDIRKYIAWYQHKPGKGPRLLINYTSTLQSGIPSRFRGSGSGRDYSFSISNLEPEDIATYYCLQYDNILFTFGTGTKLEIK
# B9: 2081-38-5 (antibody, V domains shown)
# VH: QVQLQQSGPELVKPGASVKISCKASGYTFSSSWINWVKQRPGQGLEWIGRIYPGDGDTNYNGKFKGKATLTADKSSSTVDMHLSSLTYVDSAVYFCAIHSSGFPHWGQGTLVTVSA
# VL: DIQMTQTTSSLSASLGGRVTISCRTSQDISDYLNWYQQKPDGAVKLLIYYTSRLHSGVPSRFSGSGSGTDYSLTISNLEQEDIATYFCQQTNTLPFTFGGGTKLEIK
# B10: 2075-456-4 (antibody, V domains shown)
# VH: QVHLQQSGPELVKPGASVTISCKTSGYSFSSCWMNWVKQRPGQGLEWIGRIYPGDGDTKYTEKFKDKATLTADKSSSTAYMQLSSLTSVDSALYFCAISGSGLPYWGQGTLVTVSE
# VL: DIQMTQTTSSLSASLGDRVTISCRASQDIHNYLNWYQQKPDGTIKLLIYSTSRLHSGVPSRFSGSGSGTHYSLTINNLEQEDIATYFCQQTHTLPLTFGAGTKLELK
# B11: 2081-66-5 (antibody, V domains shown)
# VH: QVQLQQSGPELVKPGASVRISCKVSGFTFSNSWMNWVKQRPGQGLEWIGRIYPGDGDTQYNEKFKGKATLTADTSSNTAYIQLNSLTSVDSAVFFCARSRSGLDYWGQGTTLTVSS
# VL: DIQMTQSTSSLSASLGDRVTISCRASQDIYNYLNWFQQKPDGTVKPLIYSTSRLHSGVSSRFSGSGSGTDYSLTISNLEREDIATYFCHQSHTVPFTFGSGTKLEIK
# B12: 2081-25-6 (antibody, V domains shown)
# VH: QVQLQQSGAELVRPGSSVKISCKASGYAFSRYWMNWVKQRPGQGLEWIGQIYPGDGDTKYNGKFKDTATLTADKSSSTAYLQLSSLTSEDSAVYFCAKYGNYGMDYWGQGTSVTVSS
# VL: DAVMTQTPLSLPVSLGDQASISCRSSQSLEYGNGNTYLNWYLQKPGQSPQLLIYRVSNRFSGVLDRFSGSGSGTDFTLKISRVEAEDLGVYFCLQFTHVPYTFGGGTKLEIK
# B13: 2077-4-1 (antibody, V domains shown)
# VH: EVQLQQSGPELVKPGASMKISCKASGYSFTGYTMNWVKQSHGENLEWIGLFNPYNGGTRYNQKFKGKATLTVDKSSSTAYMELLSLTSEDSAVYYCARLRNYGIGDDFFDYWGQGTTLTVSS
# VL: DIVMTQSHKFMSTSVGDRVSITCKASQDVGTAVAWYQQKPGQSPKLLIYWASTRHTGVPDRFTGSGSGTDFTLTISNVQSEDLTDYFCQQYSNYPYTFGGGTKLEIK
# B14: 2077-26-1 (antibody, V domains shown)
# VH: B13 VH with E10D, I20L, E43K, T58P, R59S, S88P, N101Y
# VL: B13 VL with Q38E, T84A, D85Y
# B15: 2077-7-5 (antibody, V domains shown)
# VH: B13 VH with E43K, T58I, R59N, N101Y, T117S
# VL: B13 VL with Q27R, T84A, I106M
# B16: 2077-10-1 (antibody, V domains shown)
# VH: B13 VH with V37M, S40G, E43K, T58P, R59N, N101Y
# VL: B13 VL with S76T, N93S
# Target: T1, BKV serotype I infectious virus (VP1) (BK virus serotype I, UniProt P03088 1-362)
# T1 sequence (looked up): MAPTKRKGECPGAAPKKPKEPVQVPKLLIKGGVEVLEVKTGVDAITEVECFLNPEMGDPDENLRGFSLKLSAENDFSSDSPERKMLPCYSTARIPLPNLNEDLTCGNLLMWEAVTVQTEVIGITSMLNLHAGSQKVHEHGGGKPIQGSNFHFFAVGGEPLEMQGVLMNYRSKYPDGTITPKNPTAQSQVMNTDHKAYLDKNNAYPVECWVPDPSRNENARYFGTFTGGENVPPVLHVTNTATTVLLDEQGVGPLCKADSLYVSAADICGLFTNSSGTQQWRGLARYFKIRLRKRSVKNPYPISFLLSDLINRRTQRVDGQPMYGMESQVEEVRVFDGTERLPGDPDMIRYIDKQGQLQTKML
# Assay: cell-based or functional assay
Binder,neutralization EC50 [µg/mL],neutralization EC90 [µg/mL]
B1,0.004,0.27
B2,0.009,0.37
B3,0.0008,0.34
B4,0.007,0.37

# Target: T2, BKV serotype II chimeric infectious virus (VP1 of isolate SB) (BK virus serotype II)
# Assay: cell-based or functional assay
Binder,neutralization EC50 [µg/mL],neutralization EC90 [µg/mL]
B1,0.024,6.72
B2,0.081,7.98
B3,0.074,2.89
B4,0.187,1.79

# Target: T3, BKV serotype III chimeric infectious virus (VP1 of isolate AS) (BK virus serotype III)
# Assay: cell-based or functional assay
Binder,neutralization EC50 [µg/mL],neutralization EC90 [µg/mL]
B1,> 100,> 100
B2,> 100,> 100
B3,> 100,> 100
B4,> 100,> 100

# Target: T4, BKV serotype IV chimeric infectious virus (VP1 of strain ITA-4) (BK virus serotype IV)
# Assay: cell-based or functional assay
Binder,neutralization EC50 [µg/mL],neutralization EC90 [µg/mL]
B1,0.012,0.34
B2,0.012,0.46
B3,0.015,0.53
B4,0.011,0.48

# Target: T5, JCV infectious virus, isolates Mad-1 and Mad-4 (VP1) (JC virus)
# Assay: cell-based or functional assay
Binder,neutralization EC50 [µg/mL],neutralization EC90 [µg/mL]
B1,> 100,> 100
B2,> 100,> 100
B3,> 100,> 100
B4,> 100,> 100

# Target: T1, BKV serotype I infectious virus (VP1)
# Assay: cell-based or functional assay
# Remark: another data set of the same source
Binder,neutralization EC50 [µg/mL],neutralization EC90 [µg/mL]
B5,0.033,5.53
B6,0.045,4.84
B7,0.01,2.62

# Target: T2, BKV serotype II chimeric infectious …
# Assay: cell-based or functional assay
# Remark: another data set of the same source
Binder,neutralization EC50 [µg/mL],neutralization EC90 [µg/mL]
B5,0.42,24.2
B6,0.12,25.2
B7,0.33,9.61

# Target: T3, BKV serotype III chimeric infectious …
# Assay: cell-based or functional assay
# Remark: another data set of the same source
Binder,neutralization EC50 [µg/mL],neutralization EC90 [µg/mL]
B5,0.76,> 100
B6,> 100,> 100
B7,> 100,> 100

# Target: T4, BKV serotype IV chimeric infectious …
# Assay: cell-based or functional assay
# Remark: another data set of the same source
Binder,neutralization EC50 [µg/mL],neutralization EC90 [µg/mL]
B5,0.15,7.83
B6,0.13,8.18
B7,0.35,8.61

# Target: T1, BKV serotype I infectious virus (VP1)
# Assay: cell-based or functional assay
# Remark: another data set of the same source
Binder,neutralization EC50 [µg/mL],neutralization EC90 [µg/mL]
B8,0.065,1.25
B9,0.053,1.8
B10,0.092,0.503
B11,0.041,0.601
B12,0.213,0.723

# Target: T5, JCV infectious virus, isolates Mad-1 …
# Assay: cell-based or functional assay
# Remark: another data set of the same source
Binder,neutralization EC50 [µg/mL],neutralization EC90 [µg/mL]
B13,0.138,3.06
B14,0.702,3.2
B15,0.097,1.1
B16,1.49,> 10

# Target: T6, JCV VLP (consensus) (JC virus, UniProt P03089 1-354)
# T6 construct: also called JCV VLPs; JC virus VLPs
# Assay: ELISA on coated JCV VLPs
row,Binder,IC50 [nM]
1,B13,0.034
2,B14,0.067
3,B15,0.651
4,B16,0.1

# Target: T6, JCV VLP (consensus)
# Assay: ELISA on plates coated with JCV VLPs, OD 450 nm
row,Binder,EC50 (read off the curve) [nM]
1,B13,~0.03
2,B14,~0.06
3,B15,~0.6
4,B16,~0.09
